Values quoted from earlier work as cited in patent US6440936B2, “Anti-protozoan methods and materials” (Xoma Corporation, priority 1994, dated 2002).

B1: BPI: protein isolated from the granules of mammalian polymorphonuclear neutrophils; human BPI approximately 55 kD (protein, UniProt P17213 32-487, looked up)
Bactericidal …: VNPGVVVRISQKGLDYASQQGTAALQKELKRIKIPDYSDSFKIKHLGKGHYSFYSMDIREFQLPSSQISMVPNVGLKFSISNANIKISGKWKAQKRFLKMSGNFDLSIEGMSISADLKLGSNPTSGKPTITCSSCSSHINSVHVHISKSKVGWLIQLFHKKIESALRNKMNSQVCEKVTNSVSSELQPYFQTLPVMTKIDSVAGINYGLVAPPATTAETLDVQMKGEFYSENHHNPPPFAPPVMEFPAAHDRMVYLGLSDYFFNTAGLVYQEAGVLKMTLRDDMIPKESKFRLTTKFFGTFLPEVAKKFPNMKIQIHVSASTPPHLSVQPTGLTFYPAVDVQAFAVLPNSSLASLFLIGMHTTGSMEVSAESNRLVGELKLDRLLLELKHSNIGPFPVELLQDIMNYIVPILVLPRVNEKLQKGFPLPTPARVQLYNVVLQPHQNFLLFGADVVYK

Tests used:
[1] = system: T. gondii; settings: 0.25 μg/ml in cyst medium
[2] = system: Staphylococcus aureus (four strains), Staphylococcus epidermidis, Streptococcus faecalis, Bacillus subtilis, Micrococcus lysodeikticus, Listeria monocylogenes; settings: 10^−6 M or 160 μg/ml; pH 7.0 or 5.5
[3] = system: Candida albicans and Candida parapsilosis; settings: 10^−6 M; Ph 7.0 or 5.5
[4] = system: human, rabbit and sheep red blood cells and several human tumor cell lines

Row | Molecule | anti-T. gondii effect [1] | toxic effect on gram-positive organisms [2] | toxic effect on fungi [3] | toxicity to higher eukaryotic cells [4]
1 | C[C@@H]1[C@H](O)[C@@H](C)/C=C/C=C/C=C/C=C/C=C/C=C/C=C/[C@H](O[C@@H]2O[C@H](C)[C@@H](O)[C@H](N)[C@@H]2O)C[C@@H]2O[C@](O)(C[C@@H](O)C[C@@H](O)[C@H](O)CC[C@@H](O)C[C@@H](O)CC(=O)O[C@H]1C)C[C@H](O)[C@H]2C(=O)O [Amphotericin B] | does not have a significant anti-T. gondii effect | – | – | –
2 | B1 | – | no toxic effect | no toxic effect | non-toxic
